12 substances from US20240132578A1 can be followed below.

A word on the IC50: it is the concentration that gives 50% inhibition. A high value points to a need for much substance.

Holding throughout (experiment): cell-based or functional assay
Test [1] addresses HIV-1 envelope glycoprotein (Env) of isolate MGRM-C-015 (HIV-1).
Test [2] has as its target HIV-1 92UG024 envelope (Env) on pseudovirus (HIV-1).
Test [3] deals with HIV-1 MGRM-AG-008 Env (pseudovirus) (HIV-1).
For test [4], the target named is HIV-1 Env of pseudovirus MGRM-G-013 (HIV-1).
The target of test [5] is HIV-1 MGRM-G-006 Env (pseudovirus) (HIV-1).
Test [6] addresses HIV-1 Env of pseudovirus MGRM-F1-006 (clade F) (HIV-1).
For test [7], the target named is HIV-1 APV-17 envelope (Env) on pseudovirus (HIV-1).
The target in test [8] is HIV-1 Env of pseudovirus MGRM-G-014 (HIV-1).
For test [9], the target named is HIV-1 envelope glycoprotein (Env) of isolate MGRM-C-002 (HIV-1).
Test [10] addresses HIV-1 Env of pseudovirus isolate MGRM-C-015 (clade C) (HIV-1).
Test [11] deals with HIV-1 Env of isolate MGRM-A-012 (subtype A) (HIV-1).
Test [12] deals with HIV-1 Env of pseudovirus isolate MGRM-C-006 (clade C) (HIV-1).
Test [13] has as its target HIV-1 Env of isolate MGRM-D-018 (pseudovirus) (HIV-1).
Test [14] deals with HIV-1 Env of isolate 98CN009 (pseudovirus) (HIV-1).
In test [15] the target is HIV-1 Env of isolate MGRM-C-005 (HIV-1).
For test [16], the target named is HIV-1 Env of pseudovirus isolate MGRM-C-026 (clade C) (HIV-1).
Test [17] has as its target HIV-1 Env of pseudovirus isolate MGRM-C-012 (clade C) (HIV-1).
For test [18], the target named is HIV-1 Env of isolate MGRM-D-003 (pseudovirus) (HIV-1).
Test [19] has as its target HIV-1 Env of isolate MGRM-D-002 (pseudovirus) (HIV-1).
Test [20] deals with HIV-1 Env of isolate MGRM-AG-006 (subtype AG) (HIV-1).
The target in test [21] is HIV-1 Env of pseudovirus isolate MGRM-C-007 (clade C) (HIV-1).
The target of test [22] is HIV-1 Env of isolate MGRM-AE-004 (subtype AE) (HIV-1).
Test [23] concerns the target HIV-1 JR-CSF Env T303A (HIV-1 (isolate JR-CSF, clade B)) (UniProt P20871).
Test [24] addresses HIV-1 Env of isolate MGRM-D-004 (pseudovirus) (HIV-1).
In test [25] the target is HIV-1 Env of isolate MGRM-A-004 (pseudovirus) (HIV-1).
Test [26] concerns the target HIV-1 envelope glycoprotein (Env) of isolate MG RM-A-003, subtype A (HIV-1).
Test [27] concerns the target HIV-1 envelope glycoprotein (Env) of isolate QH0692.42, on pseudovirus (HIV-1).
Test [28] has as its target HIV-1 envelope glycoprotein (Env) of isolate MGRM-Chronic-B-003, on pseudovirus (HIV-1).
Test [29] addresses HIV-1 envelope glycoprotein (Env) of isolate MGRM-Chronic-B-012, on pseudovirus (HIV-1).
The target of test [30] is HIV-1 envelope glycoprotein (Env) of isolate 92WR024, subtype A (HIV-1).
Test [31] has as its target HIV-1 envelope glycoprotein (Env) of isolate APV_6, on pseudovirus (HIV-1).
The target of test [32] is HIV-1 envelope glycoprotein (Env) of isolate THRO.18, on pseudovirus (HIV-1).
Test [33] deals with HIV-1 Env of pseudovirus isolate APV-17 (clade B) (HIV-1).
For test [34], the target named is HIV-1 Env of isolate MG RM-A-007 (pseudovirus) (HIV-1).
Test [35] has as its target HIV-1 Env of pseudovirus MGRM-F1-004 (HIV-1).
The target of test [36] is HIV-1 Env of isolate MGRM-C-022 (subtype C), on pseudovirus (HIV-1).
Test [37] deals with HIV-1 Env of isolate MG RM-A-011 (pseudovirus) (HIV-1).
Test [38] addresses HIV-1 Env of pseudovirus MGRM-D-016 (HIV-1).
Test [39] has as its target HIV-1 Env of pseudovirus MGRM-F1-013 (HIV-1).
Test [40] concerns the target HIV-1 Env of isolate CMU02 (pseudovirus) (HIV-1).
For test [41], the target named is HIV-1 Env of pseudovirus MGRM-D-011 (HIV-1).
The target of test [42] is HIV-1 Env of isolate VLGCA1 (pseudovirus) (HIV-1).
For test [43], the target named is HIV-1 envelope glycoprotein (Env) of isolate MG RM-AG-005 (HIV-1).
Test [44] has as its target HIV-1 Env of isolate MGRM-D-001 (HIV-1).
Test [45] deals with HIV-1 envelope glycoprotein (Env) of isolate MG RM-AG-012 (HIV-1).
The target in test [46] is HIV-1 Env of isolate MG RM-A-012 (pseudovirus) (HIV-1).

Chain of PGT-145 (4995_P16) (antibody) (VH): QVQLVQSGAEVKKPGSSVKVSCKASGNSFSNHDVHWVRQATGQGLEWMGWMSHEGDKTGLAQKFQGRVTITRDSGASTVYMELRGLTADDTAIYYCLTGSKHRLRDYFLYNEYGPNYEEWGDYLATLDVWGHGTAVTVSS
Chain of PGT-145 (4995_P16) (antibody) (VL): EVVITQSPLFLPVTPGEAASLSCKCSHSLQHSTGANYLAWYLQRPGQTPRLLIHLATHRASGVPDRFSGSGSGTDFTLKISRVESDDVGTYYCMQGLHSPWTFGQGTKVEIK
Chain of PGT-143 (4980_N08) (antibody) (VH): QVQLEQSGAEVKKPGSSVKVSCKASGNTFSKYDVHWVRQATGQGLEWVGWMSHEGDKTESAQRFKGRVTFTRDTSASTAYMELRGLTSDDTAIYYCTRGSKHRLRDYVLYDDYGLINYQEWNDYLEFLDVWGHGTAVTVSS
Chain of PGT-143 (4980_N08) (antibody) (VL): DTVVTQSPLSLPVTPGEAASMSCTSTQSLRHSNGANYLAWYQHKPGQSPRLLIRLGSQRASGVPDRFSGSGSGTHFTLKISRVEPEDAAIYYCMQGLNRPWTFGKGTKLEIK
Chain of PGT-144 (4970_K22) (antibody) (VH): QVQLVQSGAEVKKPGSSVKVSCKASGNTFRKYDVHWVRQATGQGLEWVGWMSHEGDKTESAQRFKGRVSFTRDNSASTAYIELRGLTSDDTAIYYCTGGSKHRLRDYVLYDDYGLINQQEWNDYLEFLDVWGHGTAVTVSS
Chain of PGT-144 (4970_K22) (antibody) (VL): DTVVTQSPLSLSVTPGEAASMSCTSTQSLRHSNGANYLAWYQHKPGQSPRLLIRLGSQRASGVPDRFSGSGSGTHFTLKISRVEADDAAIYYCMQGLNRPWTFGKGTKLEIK
Chain of PGT-142 (4995_E20) (antibody) (VH): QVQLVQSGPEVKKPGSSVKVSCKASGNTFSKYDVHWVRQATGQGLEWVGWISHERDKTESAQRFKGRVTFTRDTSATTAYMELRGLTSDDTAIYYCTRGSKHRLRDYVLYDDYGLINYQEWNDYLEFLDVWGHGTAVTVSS
Chain of PGT-142 (4995_E20) (antibody) (VL): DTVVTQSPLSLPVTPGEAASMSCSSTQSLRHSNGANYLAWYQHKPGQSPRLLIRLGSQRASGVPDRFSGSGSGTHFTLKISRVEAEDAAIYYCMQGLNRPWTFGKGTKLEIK

Take b12 (antibody): the IC50 (µg/ml), pseudovirus neutralization is 13.3 µg/mL in [1]; over 50 µg/mL in test [3]; over 50 µg/mL in test [4]; over 50 µg/mL in test [5]; over 50 µg/mL in [8]; over 50 µg/mL in [9]. Moreover, the neutralization IC50 in test [2] was 49.1 µg/mL; in test [7], over 25 µg/mL. The IC50 in test [6] was over 50 µg/mL.

In the case of 5114_A19 (PGT-128) (antibody), the IC50, pseudovirus neutralization in [10] stood at 0.196 µg/mL; in [11] it was 0.025 µg/mL; in test [12] it was 0.014 µg/mL; in test [16] it was 0.007 µg/mL; in test [17], 0.058 µg/mL; in test [20], 0.009 µg/mL. Further, the IC50, pseudovirus neutralization in test [21] is 0.111 µg/mL; in test [22] it was over 50 µg/mL. Besides, the IC50 (µg/mL), pseudovirus neutralization in test [13] was found to be 0.008 µg/mL; in test [14], 0.025 µg/mL; in [15], 0.03 µg/mL; in test [18], 0.019 µg/mL; in [19], 0.011 µg/mL; in test [24] it was 24.9 µg/mL. In addition, in [25], the IC50 (µg/mL), pseudovirus neutralization was over 50 µg/mL. This substance also registered a Fold IC50 increase relative to wild-type in test [23] of over 500 fold.

On to 5141_B17 (PGT-126) (antibody), for which the IC50, pseudovirus neutralization in test [26] was over 50 µg/mL; in [27] it was 0.048 µg/mL; in test [28] it was 0.041 µg/mL; in test [29] it was 0.027 µg/mL; in [30] it was 42 µg/mL; in [31], 0.007 µg/mL. In test [32], the IC50, pseudovirus neutralization is over 50 µg/mL. In test [23], this substance came in with a Fold IC50 increase relative to wild-type of over 250 fold.

With 5136_H01 (PGT-131) (antibody), the IC50, pseudovirus neutralization in [10] is 1.01 µg/mL; in test [11], over 50 µg/mL; in test [12], 0.611 µg/mL; in [16] it was 1.67 µg/mL; in [17], over 50 µg/mL; in [20] it was 0.019 µg/mL. Besides, the IC50, pseudovirus neutralization in [21] and in [22] was over 50 µg/mL throughout. For the same substance, the IC50 (µg/mL), pseudovirus neutralization is 0.148 µg/mL in test [13]; 4.05 µg/mL in [14]; 1.36 µg/mL in [15]; 19.6 µg/mL in test [18]; 11.2 µg/mL in test [19]; 2.01 µg/mL in [24]. The same substance had an IC50 (µg/mL), pseudovirus neutralization in test [25] of over 50 µg/mL. The Fold IC50 increase relative to wild-type in [23] was over 170 fold.

As to VRC01 (antibody), the IC50, pseudovirus neutralization is 0.477 µg/mL in test [33]; 0.305 µg/mL in test [35]; 0.452 µg/mL in test [38]; 0.17 µg/mL in test [39]; 0.075 µg/mL in [41]. Also, the IC50 (µg/mL), single-round pseudovirus neutralization in test [34] is 12.6 µg/mL; in test [37], 0.273 µg/mL; in test [40], 0.515 µg/mL; in test [42], 0.163 µg/mL; in test [46] it was over 50 µg/mL. The IC50, single-round pseudovirus neutralization in test [36] was determined as 13 µg/mL. Further, the IC50 in test [43] is 0.091 µg/mL; in [45], 0.031 µg/mL. The IC50 (µg/mL), pseudovirus neutralization in [44] is over 50 µg/mL.

5147_N06 (PGT-130) (antibody): the IC50, pseudovirus neutralization in [10] is 0.344 µg/mL; in test [11], over 50 µg/mL; in test [12] it was 0.095 µg/mL; in test [16] it was 0.036 µg/mL; in test [17], over 50 µg/mL; in [20], 0.009 µg/mL. The IC50, pseudovirus neutralization was over 50 µg/mL in test [21] and 2.43 µg/mL in [22]. Further, the IC50 (µg/mL), pseudovirus neutralization stood at 0.049 µg/mL in test [13]; 0.136 µg/mL in test [14]; 0.935 µg/mL in test [15]; 0.651 µg/mL in [18]; 0.869 µg/mL in [19]; 1.21 µg/mL in [24]. In test [25], this substance gave an IC50 (µg/mL), pseudovirus neutralization of over 50 µg/mL. Besides, in test [23], the Fold IC50 increase relative to wild-type is over 250 fold.

With PGT-144 (4970_K22) (antibody), the IC50, pseudovirus neutralization in [35] was 0.105 µg/mL; in [38], over 50 µg/mL; in test [39], 0.509 µg/mL; in test [41] it was over 50 µg/mL. The IC50 in test [43] and in test [45] was over 50 µg/mL each time.

In the case of 5145_B14 (PGT-127) (antibody), the IC50, pseudovirus neutralization is over 50 µg/mL in [26]; 0.129 µg/mL in [27]; 0.12 µg/mL in test [28]; 0.075 µg/mL in [29]; over 50 µg/mL in [30]; 0.04 µg/mL in test [31]. Moreover, the IC50, pseudovirus neutralization in test [32] is over 50 µg/mL. Further, in test [23], the Fold IC50 increase relative to wild-type is over 500 fold.

With PGT-142 (4995_E20) (antibody), the IC50, pseudovirus neutralization in [35] is 0.013 µg/mL; in test [38], over 50 µg/mL; in [39] it was 0.023 µg/mL; in test [41], over 50 µg/mL. Moreover, the concentration for half-maximal inhibition (IC50) in test [43] was 0.383 µg/mL; in [45], over 50 µg/mL.

Take 5123_A06 (PGT-125) (antibody): the IC50, pseudovirus neutralization was over 50 µg/mL in test [26]; 0.048 µg/mL in [27]; 0.157 µg/mL in test [28]; 0.036 µg/mL in test [29]; 35.5 µg/mL in [30]; 0.021 µg/mL in [31]. This substance gave an IC50, pseudovirus neutralization in [32] of over 50 µg/mL. In addition, the Fold IC50 increase relative to wild-type in [23] is over 250 fold.

With PGT-143 (4980_N08) (antibody), the IC50, pseudovirus neutralization in test [35] was 0.036 µg/mL; in [38], over 50 µg/mL; in [39], 0.013 µg/mL; in test [41], over 50 µg/mL. Also, the half-inhibitory concentration (IC50) was 1.11 µg/mL in test [43] and over 50 µg/mL in test [45].

On to PGT-145 (4995_P16) (antibody), for which the IC50, pseudovirus neutralization was 0.361 µg/mL in test [35], over 50 µg/mL in test [38], 0.402 µg/mL in test [39] and 14.7 µg/mL in test [41]. The results for the half-inhibitory concentration (IC50) in [43] and in [45] were 0.045 µg/mL and over 50 µg/mL, respectively.
